This is an account of results in publication PMC9942874 (Immunity, 2023).

The target in assay [1] is T1, Pfs230 C1 (Plasmodium falciparum 3D7 (clone of …, UniProt P68874)). Briefly: ELISA. Conditions: both partners purified. (In general: ELISA stands for enzyme-linked immunosorbent assay.)
The target of assay [2] is native Pfs230 (gametocyte extract) (Plasmodium falciparum NF54 (3D7 is its …, UniProt P68874)). The assay can be described thus: […]; 5 μg/ml mAb in PBST; […]. Particulars: one partner purified.
Chain of native Pfs230 (gametocyte extract) (Plasmodium falciparum NF54 (P68874 21-3135): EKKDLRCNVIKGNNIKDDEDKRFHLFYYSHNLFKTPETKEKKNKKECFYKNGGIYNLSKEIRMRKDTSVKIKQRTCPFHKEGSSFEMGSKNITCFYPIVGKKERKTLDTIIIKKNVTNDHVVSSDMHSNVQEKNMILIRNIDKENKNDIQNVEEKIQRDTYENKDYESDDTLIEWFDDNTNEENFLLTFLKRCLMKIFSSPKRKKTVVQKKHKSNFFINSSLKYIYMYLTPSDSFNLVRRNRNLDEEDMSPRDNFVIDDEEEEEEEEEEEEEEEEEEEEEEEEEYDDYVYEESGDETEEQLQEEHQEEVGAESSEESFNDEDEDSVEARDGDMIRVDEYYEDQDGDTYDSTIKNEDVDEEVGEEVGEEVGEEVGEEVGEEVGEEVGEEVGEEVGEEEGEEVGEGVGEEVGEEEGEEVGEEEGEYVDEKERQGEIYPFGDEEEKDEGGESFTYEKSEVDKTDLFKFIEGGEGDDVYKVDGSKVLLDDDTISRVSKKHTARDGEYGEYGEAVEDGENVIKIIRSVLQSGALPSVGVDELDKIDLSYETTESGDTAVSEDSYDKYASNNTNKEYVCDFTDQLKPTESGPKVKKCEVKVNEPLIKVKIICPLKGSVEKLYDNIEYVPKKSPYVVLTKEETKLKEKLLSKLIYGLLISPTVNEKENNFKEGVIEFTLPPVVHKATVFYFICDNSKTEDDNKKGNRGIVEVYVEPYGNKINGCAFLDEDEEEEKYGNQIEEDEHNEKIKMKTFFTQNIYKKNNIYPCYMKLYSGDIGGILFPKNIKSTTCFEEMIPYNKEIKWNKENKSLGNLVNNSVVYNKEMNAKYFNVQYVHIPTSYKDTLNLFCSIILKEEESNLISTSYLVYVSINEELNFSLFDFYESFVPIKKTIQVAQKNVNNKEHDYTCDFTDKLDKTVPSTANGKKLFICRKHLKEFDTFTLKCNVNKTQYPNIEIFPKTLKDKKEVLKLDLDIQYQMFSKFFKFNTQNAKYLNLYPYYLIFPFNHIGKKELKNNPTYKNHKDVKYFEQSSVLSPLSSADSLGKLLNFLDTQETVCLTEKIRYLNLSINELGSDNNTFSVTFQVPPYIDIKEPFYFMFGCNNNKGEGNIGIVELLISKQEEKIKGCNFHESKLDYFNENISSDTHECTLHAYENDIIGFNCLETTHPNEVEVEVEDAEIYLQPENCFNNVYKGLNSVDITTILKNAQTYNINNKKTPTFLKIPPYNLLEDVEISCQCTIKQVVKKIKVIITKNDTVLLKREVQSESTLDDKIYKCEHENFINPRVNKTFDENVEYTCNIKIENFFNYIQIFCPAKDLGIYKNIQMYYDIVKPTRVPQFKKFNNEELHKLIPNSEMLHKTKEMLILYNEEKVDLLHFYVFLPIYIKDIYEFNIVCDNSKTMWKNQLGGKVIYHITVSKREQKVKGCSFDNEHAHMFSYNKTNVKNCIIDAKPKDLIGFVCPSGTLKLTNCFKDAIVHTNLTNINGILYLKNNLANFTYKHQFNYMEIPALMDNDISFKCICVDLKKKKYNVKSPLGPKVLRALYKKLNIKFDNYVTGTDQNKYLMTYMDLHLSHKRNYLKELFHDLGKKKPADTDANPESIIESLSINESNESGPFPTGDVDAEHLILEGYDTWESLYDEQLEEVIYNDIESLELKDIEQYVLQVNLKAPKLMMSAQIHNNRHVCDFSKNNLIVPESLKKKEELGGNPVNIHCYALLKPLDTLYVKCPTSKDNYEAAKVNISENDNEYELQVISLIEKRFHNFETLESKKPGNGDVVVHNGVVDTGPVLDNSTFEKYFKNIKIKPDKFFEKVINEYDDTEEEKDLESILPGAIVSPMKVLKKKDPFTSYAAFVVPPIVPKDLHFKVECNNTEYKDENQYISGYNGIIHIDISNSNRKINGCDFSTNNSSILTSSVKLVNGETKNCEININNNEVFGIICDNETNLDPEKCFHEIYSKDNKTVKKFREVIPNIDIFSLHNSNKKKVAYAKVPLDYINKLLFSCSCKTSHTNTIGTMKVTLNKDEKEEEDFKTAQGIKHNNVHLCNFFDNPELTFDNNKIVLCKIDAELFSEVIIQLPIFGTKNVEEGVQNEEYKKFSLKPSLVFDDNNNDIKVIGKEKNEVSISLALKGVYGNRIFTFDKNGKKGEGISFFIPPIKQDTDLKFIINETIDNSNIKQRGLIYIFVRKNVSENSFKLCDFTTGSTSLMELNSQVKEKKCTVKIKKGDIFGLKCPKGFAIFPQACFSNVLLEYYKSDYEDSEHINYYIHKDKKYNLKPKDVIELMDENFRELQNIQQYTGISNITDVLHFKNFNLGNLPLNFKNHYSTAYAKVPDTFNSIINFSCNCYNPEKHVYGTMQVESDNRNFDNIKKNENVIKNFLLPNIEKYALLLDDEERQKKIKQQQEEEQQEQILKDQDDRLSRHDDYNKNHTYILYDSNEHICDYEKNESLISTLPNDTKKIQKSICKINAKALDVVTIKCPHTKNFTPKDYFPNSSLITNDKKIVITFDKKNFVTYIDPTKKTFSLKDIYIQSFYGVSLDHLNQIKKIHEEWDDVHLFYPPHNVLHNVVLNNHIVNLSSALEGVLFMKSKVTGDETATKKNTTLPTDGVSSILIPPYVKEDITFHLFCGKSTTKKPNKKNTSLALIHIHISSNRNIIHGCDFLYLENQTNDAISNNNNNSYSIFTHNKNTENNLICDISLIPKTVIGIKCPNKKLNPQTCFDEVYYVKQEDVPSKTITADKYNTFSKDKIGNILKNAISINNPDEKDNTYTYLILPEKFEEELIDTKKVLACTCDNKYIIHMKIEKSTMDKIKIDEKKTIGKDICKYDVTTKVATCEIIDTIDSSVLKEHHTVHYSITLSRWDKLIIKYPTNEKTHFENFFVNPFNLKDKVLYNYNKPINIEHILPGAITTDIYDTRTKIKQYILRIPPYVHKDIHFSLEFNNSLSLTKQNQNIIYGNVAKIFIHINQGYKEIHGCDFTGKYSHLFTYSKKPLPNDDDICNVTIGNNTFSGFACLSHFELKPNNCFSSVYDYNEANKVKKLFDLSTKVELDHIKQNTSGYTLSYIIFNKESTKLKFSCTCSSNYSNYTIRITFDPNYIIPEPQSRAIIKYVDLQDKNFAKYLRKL
In a further assay the target is Pfs230 Pro (Plasmodium falciparum 3D7 (clone of …, UniProt P68874)). Briefly: ELISA. Particulars: both partners purified.
Chain of Pfs230 Pro (Plasmodium falciparum 3D7 (P68874 443-590): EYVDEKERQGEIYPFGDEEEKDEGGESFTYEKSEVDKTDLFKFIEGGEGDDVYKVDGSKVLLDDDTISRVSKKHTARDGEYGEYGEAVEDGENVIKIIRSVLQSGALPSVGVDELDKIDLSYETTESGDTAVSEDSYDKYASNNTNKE
In assay [3] the target is T1, Pfs230 C1. Briefly: SPR. Conditions: both partners purified.

T1 sequence (P68874 443-731): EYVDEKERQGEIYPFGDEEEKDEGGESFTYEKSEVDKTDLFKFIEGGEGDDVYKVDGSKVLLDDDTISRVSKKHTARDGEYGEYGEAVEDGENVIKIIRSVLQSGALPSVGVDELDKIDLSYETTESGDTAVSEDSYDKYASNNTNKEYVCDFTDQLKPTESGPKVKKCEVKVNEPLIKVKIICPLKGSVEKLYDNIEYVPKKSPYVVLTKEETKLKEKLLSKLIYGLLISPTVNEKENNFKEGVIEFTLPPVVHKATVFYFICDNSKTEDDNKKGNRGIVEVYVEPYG

B1: RUPA-115 (antibody, V domains shown)
VH: EVQLVESGGGLVQPGRSLRLFCAASGFNFDDYAMHWVRQAPGKGLEWVSGISWNSGTLAYADFVMGRFTISRDTAKNSLYLQMNSLRAEDTAFYYCAKDLKKYISSSLDYWGQGTLVTVFS
VL: QSALTQPRSVSGSPGQSVTISCTGTSSDVGAYNFVSWFQHHPGKAPKLMIYDVTKRPSGVPDRFSASKSGNTASLTISGLQAEDEAEYYCCSYAGTYHVVFGGGTKLTVL
notes: also called RUPA-115 (IgG1)
Regarding B1, the binding result (with Pfs230 C1 [1]; in assay [2]) was “binds” each time.

B2: RUPA-62 (antibody, V domains shown)
VH: EVQLVESGGGLVQPGRSLRLSCAASGFTFDDYAMHWVRQAPGKGLEWVSGISWNSGSIGYADSVNGRFTISRDNAKKSLYLQMNSLRPEDTALYYCAKDTHEYSSSPGDYWGQGTLVTVSS
VL: QSALTQPRSVSGSPGQSVTISCTGTSSDVGGYTFVSWSQQHPGKAPKLMIYDVSKRPSGVPDRFSGSKSGNTASLTISGLQAEDEADYYCCSYAGTYHVVFGGGTKLTVL
notes: also called RUPA-62 (IgG1)
With B2, the binding result (with Pfs230 C1 [1]; in assay [2]) was “binds” in each case.

B3: RUPA-96 (antibody, V domains shown)
VH: EVQLVESGGGLVQPGRSLRLSCAVSGFTFDNYAMHWVRQAPGKGLEWVSGISWNSGTLAYADFVMGRFTISRDTAKNSLYLQLNSLRTEDTALYYCAKDIKMYISSSLDYWGQGTLVTVFS
VL: QSALTQPRSVSGSPGQSVTVSCTGTNSDVGAYNFVSWFQHHPGKAPKLIIYDITKRPSGVPDRFSASKSGNTASLTISGLQAEDEAEYYCCSYAGTYHVVFGGGTKLTVL
notes: also called RUPA-96 (IgG1)
As for B3, the binding result (with Pfs230 C1 [1]; in assay [2]) was “binds” throughout.

B4: RUPA-73 (antibody, V domains shown)
VH: EPQLVESGGGLVQPGRSLRLSCAGSGFTFGDYAMHWVRQAPGKGLEWVSGISWNSGTLAYAVFVEGRFTISRDNAKNSLYLQMNSLRPEDTAFYYCAKDVKNYVSGGCSDWGQGSLVTVSS
VL: QSALTQPRSVSGSPGQSVTISCTGTSSDVGGYEFVSWYQQYPGKAPKLIIYDVTKRPSGVPAHFSASKSGNTASLTISGLQAEDEADYYCCSYAGTYHVLFGGGTKLTVL
notes: also called RUPA-73 (IgG1)
Regarding B4, the binding result (with Pfs230 C1 [1]; in assay [2]) was “binds” throughout.

B5: RUPA-38 (antibody, V domains shown)
VH: EVQLVESGGGLVQPGRSLRLSCAVSGFNFEDYAMHWVRQTPGKGLEWVSGISWNSGTLAYGDFVQGRFIISRDNAKNFLYLQMNSLRPEDTALYYCANDRMRWIQVPHYWGQGTLVTVSS
VL: LSALTQPRSVSGSPGQSVTISCTGTNDDVGEYNYVSWYQQHPGKAPKLMIYDVTKRPSGVPDRFSASKSGNTASLTISGLQAEDEANYYCCSYAGTYHMVFGGGTKLTVL
notes: also called RUPA-38 (IgG1)
In the case of B5, the binding result (with Pfs230 C1 [1]; in assay [2]) was “binds” in each case.

B6: RUPA-32 (antibody, V domains shown)
VH: EVQLVESGGGLVKPGGSLRLSCAASGFAFSTYAMSWVRQAPGKGLEWVSSISESSSYTYYTDSVKGRFTISRDNAKKSLFLHMNSLRAEDTAVYYCARSDGLSMIAAPFDYWGQGARVTVSS
VL: EIVLTQSPATLSLSPGERATLSCRTSQSLSISLVWYQQKPGQAPRLLISDASNRAPGIPARFSASGSGTDFTLTISSLEPEDFAVYYCQQRSNWPPITFGQGTRLEMK
notes: also called RUPA-32 (IgG1)
As for B6, the binding result (in the assay with Pfs230 C1 [1]; in assay [2]) was “binds” in each case.

B7: RUPA-135 (antibody, V domains shown)
VH: EVQLVDSGGGLVQPGGSLKLTCATSGFFFSGSAMHWVRQASGKGLEWVGRIRSKGNNYATAYAASVKGRFTISRDDSKNTAYLQMDSLKTEDTAVYYCSSRNSKVPDYWGQGTLVTVSS
VL: QSVLTQPPSASGTPGQRVTIFCSGSSSNIGSNFVYWYQQLPGAAPKLLIYRNHQRPSGVPDRLSGSKSGTSASLAISGLRSEDEADYYCAAWDDSLNVQVFGGGTKVTVL
notes: also called RUPA-135 (IgG1)
In the case of B7, the binding result with Pfs230 C1 [1] and with Pfs230 Pro was “binds” each time.

B8: 15C5 (IgG1) (antibody, V domains shown)
VH: DVQLQESGPGLVNPSQSLSLTCSVTGYSITSDYYWNWIRQFPGNKLEWMGYITYDGTNNYNPFFKNRISITRDTSQNQFFLKLNSVTTEDTATYYCARDGRYWYFDVWGAGTTVTVSS
VL: QIVLTQSPTLMSAFPGEKVTMTCSASSSVSYMYWYQQKPGSSPKPWIYLTSNLASGVPARFSGSGSGTSYSLTISSMEAEDAATYYCQQWNNSPPTFGAGTKLELK
notes: also called humanized analog of the 15C5 mouse mAb
In the case of B8, the binding result with Pfs230 C1 [3] is listed as “binds”.

B9: RUPA-136 (antibody, V domains shown)
VH: EVQLVESGGGLVRPGGSLRLSCAASGFNFSAYGMNWVRQAPGRGLEWISYISHNTSIIHYADSVKGRFTISRDNGANSLYLQLNTLRDGDTAVYYCVRDCATLIGGRLPICQYFFDYWGQGALVTVSS
VL: SYELTQPSSVSVSLGQTASITCSGDMLTGKYVRWFQQKPGQAPILVIYKDRKRPSGIPDRFSGSSSGTTVTLIINGARIEDEADYYCYSAAARKRVFGGGTKLTVL
notes: also called RUPA-136 (IgG1)
On to B9, for which the binding result with Pfs230 C1 [1] and with Pfs230 Pro was “binds” each time.

B10: RUPA-39 (antibody, V domains shown)
VH: DVQLVESGGGLVKPGGSLRLSCAASGFTFSSYTMNWVRQAPGKGLEWVSSISTNIRYIYYADSVKGRFTISRDNAKNSLFLQMDSLRAEDTAVYYCATIAGPLSLKGDFYFDSWGQGTLVTVSS
VL: EIVMTQSPATLSVSPGERATLSCRASQSVSSSLAWYQQKPGQAPRLLIHGASTRATGIPTRFSGSGSGTEFTLTISSLQSEDFAVYYCQQYANWPPWTFGQGTKVESK
notes: also called RUPA-39 (IgG1)
On to B10, for which the binding result (with Pfs230 C1 [1]; in assay [2]) was “binds” each time.

B11: RUPA-55 (antibody, V domains shown)
VH: DVQLVESGGGLVKPGGSLRLSCAASGFTFNSYTMNWVRQAPGKGLEWVSSISTNIRYIYYADSVKGRFTISRDNAKNSLFLQMDSLRAEDTAVYYCATIAGPLSLKGDFFFDSWGQGTLVTVSP
VL: EIVMTQSPATLSVSPGERATLSCRASQSVSSSLAWYQQKPGQAPRLLIHGASTRATGIPTRFSGSGSGTEFTLTISSLQSEDFAVYYCQQYANWPPWTFGQGTKVESK
notes: also called RUPA-55 (IgG1)
On to B11, for which the binding result (with Pfs230 C1 [1]; in assay [2]) was “binds” throughout.

B12: RUPA-33 (antibody, V domains shown)
VH: EVQLVESGGGLVQPGRSLRLSCAASGFTFDDYAVHWVRQVPGKGLEWVSGISWNSATLAYADSVTGRFTISRDNARNSLYLQMNSLRIEDTALYYCARALPERTYGHRAFDYWGRGTQVTVSS
VL: QSALTQPRSVSGSPGQSVTISCTGTSSDVGYFTFVSWYQQHPGEVPKLIIYDVTKRPSGVPDRFSGSKSGNTASLTISGLQSDDEADYYCCSYAGTYHIRFGGGTKLTVL
notes: also called RUPA-33 (IgG1)
With B12, the binding result (in the assay with Pfs230 C1 [1]; in assay [2]) was “binds” in each case.

B13: RUPA-103 (antibody, V domains shown)
VH: EVQLVESGGGLVKPGGSLRLSCAASGFTFSSYSMNWVRQAPGKGLEWVSSISSGSSYKYYSDSVKGRFTISRDNAKNSLYLQMNTLRAEDTAVYYCARAPEPGLLWFGEWGDYWGQGTLVTVSS
VL: EIVLTQSPVTLSLSPGERATLSCRASQSISSSLAWYQQKPGQAPRLLIYDASNRATGIPARFSGSGSGTDFTLTISSLEPEDFAVYYCQQRSIWPPITFGQGTRLEIQ
notes: also called RUPA-103 (IgG1)
B13: the binding result (with Pfs230 C1 [1]; in assay [2]) was “binds” each time.

B14: RUPA-137 (antibody, V domains shown)
VH: QITLKESGPALVKPTQTLTLTCTFSGFSLTSSGVGVVWVRQPPEKALEWLALIYWDDDRRYSPSLETRLNISKDTSKNQVVLTMTNMDPLDTATYFCAHSRASGWYGYWGQGTLVTVSS
VL: QSVLTQPPSASGTPGQRVTISCSGSRSNLGTNFVYWYQQLPGTAPKLLIYKNYQRPSGVPDRFSGSKSGTSASLSISGLRSEDEADYYCAAWDDNLNGFYVFGTGTKLTVV
notes: also called RUPA-137 (IgG1)
Regarding B14, the binding result in the assay with Pfs230 C1 [1] and with Pfs230 Pro was “binds” in each case.

B15: RUPA-126 (antibody, V domains shown)
VH: QVQLVQSGAEVKKPGASVTVSCKASGYTFTDYYLHWVRQAPGHGLEWMGWINPNSGITEYAQKFQGRVTVTRDTSISTIYMDLSRLRSDDTAIYYCVRRERGSPYTLFDYWGQGTLVIVSS
VL: QSVLTQPPSASGTPGQRVTISCSGGDSNIGTNYGYWYQQFPGTAPKLLIYWNNRRPSGVPDRFSGSKSGTSVFLAISGLRSEDEADYYCAAWDDSLSAPVFGGGTKLTVI
notes: also called RUPA-126 (IgG1)
As for B15, the binding result (with Pfs230 C1 [1]; in assay [2]) was “binds” in each case.

B16: RUPA-133 (antibody, V domains shown)
VH: QVQLVQSGAEVKKPGASVNVSCMPSGYTFSDYFLHWVRQAPGQGLEWMGWINPNSGLTKYAQKFQGRVTMTSDTSISTVYLDLSRLRSDDTAIYFCVRRERGSPYTLFDYWGQGTLVTVSS
VL: QSVLTQPPSASGTPGQRVTISCSGGASNIGTNYVYWYQQLPGTAPKLLIYWNNRRPSGVPDRFSGSKSGTSVSLAISGLRSEDEADYYCAAWDDSLSGPVFGGGTKLTVI
notes: also called RUPA-133 (IgG1)
As to B16, the binding result (with Pfs230 C1 [1]; in assay [2]) was “binds” in each case.
